Measured values from US20230183342A1 (YISSUM RESEARCH DEVELOPMENT COMPANY OF THE HEBREW …, published 2023).

How the values were obtained:
[1] = target: T1, Acro Biosystems Human NKp46 expressed in HEK293 cells (human, UniProt O76036 22-258); test: ELISA titration on coated Acro Biosystems human NKp46, anti-human kappa-HRP, absorbance at 450 nm; given as affinity
T1 construct: Bought antigen coated on the ELISA plate
Method: The binding of the humanized antibodies with mutated IgG4 to cells expressing NKp46 was examined. The experiments were performed as follows: [0300] 1. Coat tested in a matrix of 3 conc. vs. 3 buffers to find optimal signal. [0301] 2. Optimal signal conditions were used to coat the ELISA tray, using standard blocking and washing steps. [0302] 3. Primary antibody applied in range of concentrations with 10-dilutions (MAbs with humanized variable + mutated IgG4). [0303] 4. Secondary Ab used to detect binding was Anti-Hu Kappa with HRP (TMB sub strate). [0304] 5. Absorbance measured at 450 nm.
The antigen was Acro Biosystems Human NKp46 that was expressed in HEK293 cells.

NKp46 D1 domain-Ig = target: T2, NKp46 D1 domain-Ig (human, UniProt O76036 22-120); test: ELISA, D1-Ig plated at 0.1 ug/well, biotin anti-mouse / streptavidin-POD / TMB, OD 650nm
T2 construct: domain: D1; also called D1-Ig; Ig-D1; not shown: Ig part not described for this construct
T2 sequence (O76036 22-120): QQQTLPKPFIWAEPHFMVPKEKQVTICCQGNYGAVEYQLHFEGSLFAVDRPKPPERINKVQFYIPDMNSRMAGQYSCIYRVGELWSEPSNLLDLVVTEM
Method: To identify the binding site of the anti-NKp46 mAbs, Ig-D1, Ig-D2 and Ig-NKp46 were plated at 0.1 µg/well. The plate was placed at 4° C. overnight. The next day blocking was performed (blocking buffer is PBSx1, 0.05%Tween-20, and 5% BSA) followed by addition of the mAbs at 0.1 µg/well and 10 µl/well of SN antibodies (both diluted in blocking buffer to a final volume of 100µl). The plate was placed at 4° C. overnight. The next day, biotin anti-mouse was added (diluted in blocking buffer), followed by streptavidin-POD (diluted in blocking buffer), and with TMB for detection of samples at OD650nm.

T1 sequence (O76036 22-258 limits assumed): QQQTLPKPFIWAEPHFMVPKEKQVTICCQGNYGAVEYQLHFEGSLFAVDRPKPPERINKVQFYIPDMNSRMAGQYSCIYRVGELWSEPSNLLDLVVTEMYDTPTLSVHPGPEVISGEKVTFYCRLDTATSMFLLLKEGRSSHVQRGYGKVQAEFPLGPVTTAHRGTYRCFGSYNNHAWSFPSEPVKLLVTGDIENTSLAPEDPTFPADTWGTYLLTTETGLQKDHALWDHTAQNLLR

B1: humanized P4 antibody having mutated IgG4 (antibody, V domains shown)
VH: EVQLQQSGAEVKKPGSSVKVSCKTSGYTFTEYSMHWVRQAPGKSLEWFGGISPNSGGTSYNQKFKGRATLTVDKSSSTAYMELSSLRSEDTAVYYCARRDFHSSFDYWGQGTTVTVSS
VL: DIVMTQSPATLSLSPGERATLSCRASQSISDYLHWFQQKPHESPRLLIKYASQSISGIPARFSGSGSGSDFTLTISSLEPEDFAVYYCQNGHSFPLTFGPGTKVDIK
notes: detected with an anti-human kappa secondary antibody
B1 was tested, and the Kd [1] was 0.0205 nM.

B2: humanized K3 antibody having mutated IgG4 (antibody, V domains shown)
VH: EVQLQQSGAEVKKPGSSVKVSCKTSGYTFTEYSMHWVRQAPGKSLEWFGGISPNSGGTSYNQKFKGRATLTVDKSSSTAYMELSSLRSEDTAVYYCARRDFHSSFDYWGQGTTVTVSS
VL: DIVLTQSPATLSLSPGERATLSCRASQSISDYLHWFQQKPHESPRLLIKYASQSISGIPARFSGSGSGSDFTLTISSLEPEDFAVYYCQNGHSFPLTFGPGTKVDIKR
notes: as for B1
For B2, the Kd [1] was 0.027 nM.

B3: anti-NKp46 monoclonal antibody clone K3 (antibody, V domains shown)
VH: EVQLQQSGPELVKPGTSVKISCKTSGYTFTEYSMHWVKQSHGKSLEWFGGISPNSGGTSYNQKFKGKATLTVDKSSSTAYMELRSLTSEDSAVYYCARRDFHSSFDYWGQGTTLTVSS
VL: DIVLTQSPATLSVTPGNSVSLSCRASQSISDYLHWFQQKSHESPRLLIKYASQSISGIPSRFSGSGSGSDFTLSINSVEPEDVGVYYCQNGHSFPLTFGPGTKLELK
B3: no binding (NKp46 D1 domain-Ig).
